{
  "source": "paper doi:10.1101/2020.10.26.352583",
  "about": "(bioRxiv, 2020)",
  "proteins": {"B1": {"name": "HDP1 DNA-binding domain (HDP1-DBD), aa2991-3078 (domain or fragment, P. falciparum, UniProt A0A2I0C2C6 2991-3078, looked up)", "chain": "SEVQVSNINTPSSYNISARRRRRIGNNGPPSAEELNRLLNIQHLTIPEIATIYGVHRTTIARWCNIRNITSNSMNNSPGKRRKNEDNK"}},
  "target": "the molecule itself",
  "assay": "ITC",
  "data": [
    {"protein": "B1", "values": [
      {"measurement": "binding result", "value": "binds"}
    ]}
  ]
}
